Assay results published in patent US20040137579A1, “Protein complexes having factor VIII:C activity and production thereof” (Chiron Corporation, published 2004).
One block for each molecule: values may come before it.

Assays:
[1] = biological target: Factor VIII:C Mr 80 K polypeptide (FVIII-LC) encoded by pSVF8-80 (human) (UniProt P00451)
[2] = biological target: Factor VIII:C Mr 80 K polypeptide (FVIII-LC) encoded by pSVF8-80 (human) (UniProt P00451); remark: listed apart in the source
[3] = biological target: Factor VIII:C Mr 80 K polypeptide (FVIII-LC) encoded by pSVF8-80 (human) (UniProt P00451); remark: listed apart in the source
[4] = biological target: Factor VIII:C Mr 80 K polypeptide (FVIII-LC) encoded by pSVF8-80 (human) (UniProt P00451); remark: listed apart in the source
[5] = biological target: Factor VIII:C Mr 80 K polypeptide (FVIII-LC) encoded by pSVF8-80 (human) (UniProt P00451); remark: listed apart in the source
[6] = biological target: Factor VIII:C Mr 80 K polypeptide (FVIII-LC) encoded by pSVF8-80 (human) (UniProt P00451); remark: listed apart in the source
[7] = biological target: T1, Factor VIII:C 80 K light chain encoded by pSVF8-80KG (human, UniProt P00451); assay: cell-based or functional assay
T1 chain: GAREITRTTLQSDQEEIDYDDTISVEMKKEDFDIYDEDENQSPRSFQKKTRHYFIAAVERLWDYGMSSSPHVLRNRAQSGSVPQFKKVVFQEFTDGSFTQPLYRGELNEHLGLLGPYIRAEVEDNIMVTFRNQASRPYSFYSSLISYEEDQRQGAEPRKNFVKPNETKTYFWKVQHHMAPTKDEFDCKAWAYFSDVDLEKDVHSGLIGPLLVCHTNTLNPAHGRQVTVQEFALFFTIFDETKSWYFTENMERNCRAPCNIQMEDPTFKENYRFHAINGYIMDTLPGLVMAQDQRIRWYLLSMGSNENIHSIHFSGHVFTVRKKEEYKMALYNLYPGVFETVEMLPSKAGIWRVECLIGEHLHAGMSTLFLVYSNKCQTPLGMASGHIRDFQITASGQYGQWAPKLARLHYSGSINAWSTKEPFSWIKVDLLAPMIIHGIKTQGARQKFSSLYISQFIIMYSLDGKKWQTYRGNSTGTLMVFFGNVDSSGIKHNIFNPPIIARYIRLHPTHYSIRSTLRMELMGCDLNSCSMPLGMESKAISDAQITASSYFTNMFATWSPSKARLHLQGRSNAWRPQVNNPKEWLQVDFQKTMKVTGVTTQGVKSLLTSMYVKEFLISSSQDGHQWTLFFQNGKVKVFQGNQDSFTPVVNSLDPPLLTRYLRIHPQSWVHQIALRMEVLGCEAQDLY

[8] = biological target: T2, Factor VIII:C 80 K light chain encoded by pSVF8-80S (human, UniProt P00451); assay: cell-based or functional assay
T2 chain: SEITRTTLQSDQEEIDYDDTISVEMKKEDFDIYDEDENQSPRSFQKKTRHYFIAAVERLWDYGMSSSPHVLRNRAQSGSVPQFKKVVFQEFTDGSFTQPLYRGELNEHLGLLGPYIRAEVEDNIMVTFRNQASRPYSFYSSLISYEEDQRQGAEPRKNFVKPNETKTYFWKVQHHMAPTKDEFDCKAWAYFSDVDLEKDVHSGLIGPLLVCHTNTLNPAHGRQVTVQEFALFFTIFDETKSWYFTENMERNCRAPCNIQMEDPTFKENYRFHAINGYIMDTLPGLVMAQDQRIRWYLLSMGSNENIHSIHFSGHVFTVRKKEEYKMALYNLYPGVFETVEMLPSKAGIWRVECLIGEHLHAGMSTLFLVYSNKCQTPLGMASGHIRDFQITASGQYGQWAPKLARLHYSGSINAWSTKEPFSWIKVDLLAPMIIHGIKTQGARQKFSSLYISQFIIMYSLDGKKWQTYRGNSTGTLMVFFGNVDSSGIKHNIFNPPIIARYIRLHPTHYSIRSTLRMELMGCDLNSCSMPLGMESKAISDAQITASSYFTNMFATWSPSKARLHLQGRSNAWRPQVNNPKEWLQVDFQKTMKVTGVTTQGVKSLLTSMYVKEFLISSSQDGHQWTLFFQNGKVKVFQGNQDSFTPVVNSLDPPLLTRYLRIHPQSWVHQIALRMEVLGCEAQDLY

[9] = biological target: T3, Factor VIII:C 80 K light chain encoded by pSVF8-80A (human, UniProt P00451); assay: cell-based or functional assay
T3 chain: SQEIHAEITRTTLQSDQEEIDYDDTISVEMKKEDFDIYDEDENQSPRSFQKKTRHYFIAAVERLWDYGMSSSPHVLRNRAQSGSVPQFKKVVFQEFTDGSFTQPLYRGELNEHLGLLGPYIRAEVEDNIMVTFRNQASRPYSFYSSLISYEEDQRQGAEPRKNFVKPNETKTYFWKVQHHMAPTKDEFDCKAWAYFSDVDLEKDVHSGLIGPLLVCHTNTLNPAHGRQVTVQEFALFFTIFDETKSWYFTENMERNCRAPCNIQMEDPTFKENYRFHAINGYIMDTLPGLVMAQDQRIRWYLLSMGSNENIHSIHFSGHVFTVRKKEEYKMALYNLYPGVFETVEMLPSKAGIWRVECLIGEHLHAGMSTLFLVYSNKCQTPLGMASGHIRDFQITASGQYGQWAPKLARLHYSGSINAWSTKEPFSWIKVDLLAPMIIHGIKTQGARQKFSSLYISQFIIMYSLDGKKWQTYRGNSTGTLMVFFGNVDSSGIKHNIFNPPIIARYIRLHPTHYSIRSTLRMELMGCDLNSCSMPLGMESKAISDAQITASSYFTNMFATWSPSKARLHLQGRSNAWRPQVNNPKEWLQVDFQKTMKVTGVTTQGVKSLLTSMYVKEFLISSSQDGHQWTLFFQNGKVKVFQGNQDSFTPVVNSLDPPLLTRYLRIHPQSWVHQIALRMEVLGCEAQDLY

[10] = biological target: Factor VIII:C light chain encoded by pSVF8-80AT (alpha1-antitrypsin signal peptide) (human, UniProt P00451); assay: cell-based or functional assay

Molecule: 1416 amino acid Factor VIII:C heavy chain encoded by pSVF8-170 (from UniProt P00451)
ratio of RIA to COATEST activity [1]: 1.8

Molecule: Factor VIII:C 92 K heavy chain encoded by pCMVF8-92/6x (from UniProt P00451)
COA (COATEST) mU/mL, cotransfected COS7 cells [2]: 87 mU/mL

Molecule: Factor VIII:C Mr 92 K polypeptide (FVIII-HC) encoded by pSVF8-92 (from UniProt P00451)
COATEST Activity mU/mL (medium of cotransfected COS7 cells) [6]: 20.4 mU/mL
COATEST Activity mU/mL (supernatants of separate transfectants mixed) [6]: < 0.1 mU/mL
Coagulation Activity mU/mL (one-stage assay, medium of cotransfected COS7 cells) [6]: 22.5 mU/mL
Coagulation Activity mU/mL (supernatants of separate transfectants mixed) [6]: < 0.9 mU/mL

B1: purified recombinant FVIII:C heavy chains (from full-length human FVIII:C) (other)
chain: ATRRYYLGAVELSWDYMQSDLGELPVDARFPPRVPKSFPFNTSVVYKKTLFVEFTDHLFNIAKPRPPWMGLLGPTIQAEVYDTVVITLKNMASHPVSLHAVGVSYWKASEGAEYDDQTSQREKEDDKVFPGGSHTYVWQVLKENGPMASDPLCLTYSYLSHVDLVKDLNSGLIGALLVCREGSLAKEKTQTLHKFILLFAVFDEGKSWHSETKNSLMQDRDAASARAWPKMHTVNGYVNRSLPGLIGCHRKSVYWHVIGMGTTPEVHSIFLEGHTFLVRNHRQASLEISPITFLTAQTLLMDLGQFLLFCHISSHQHDGMEAYVKVDSCPEEPQLRMKNNEEAEDYDDDLTDSEMDVVRFDDDNSPSFIQIRSVAKKHPKTWVHYIAAEEEDWDYAPLVLAPDDRSYKSQYLNNGPQRIGRKYKKVRFMAYTDETFKTREAIQHESGILGPLLYGEVGDTLLIIFKNQASRPYNIYPHGITDVRPLYSRRLPKGVKHLKDFPILPGEIFKYKWTVTVEDGPTKSDPRCLTRYYSSFVNMERDLASGLIGPLLICYKESVDQRGNQIMSDKRNVILFSVFDENRSWYLTENIQRFLPNPAGVQLEDPEFQASNIMHSINGYVFDSLQLSVCLHEVAYWYILSIGAQTDFLSVFFSGYTFKHKMVYEDTLTLFPFSGETVFMSMENPGLWILGCHNSDFRNRGMTALLKVSSCDKNTGDYYEDSYEDISAYLLSKNNAIEPR
Percent Control Activity (COATEST after in vitro combination of purified chains) [7]: 233 percent of control activity
Percent Control Activity (COATEST after in vitro combination of purified chains) [8]: 51 percent of control activity
Percent Control Activity (COATEST after in vitro combination of purified chains) [9]: 92 percent of control activity
Percent Control Activity (COATEST after in vitro combination of purified chains) [10]: 86 percent of control activity

The next lines start with the values.

ratio of RIA to COATEST activity [1]: 1.8
Molecule: 1323 amino acid Factor VIII:C heavy chain encoded by pSVF8-160 (from UniProt P00451)

mU COATEST/mL (stable CHO cell line 11-D6) [3]: 43 mU/mL
COA (COATEST) mU/mL, cotransfected COS7 cells [2]: 46 mU/mL
Molecule: Factor VIII:C 92 K heavy chain encoded by pSVF8-92C (from UniProt P00451)

COATEST (mU/mL) (stable CHO clone 10C2-D2, 0.05 uM methotrexate) [4]: 496 mU/mL
Factor VIII:C activity of medium of COS7 cells cotransfected with pSVF8-80 [5]: 1.65 fold
ratio of RIA to COATEST activity [1]: 7.2
Molecule: Factor VIII:C Mr 92 K heavy chain encoded by pSVF8-92E (from UniProt P00451)
